Interaction score data for 5 molecules are collected here from paper PMC10397247.

One test deals with T1, P8SHb.
T1 chain: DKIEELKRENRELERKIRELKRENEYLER
As to the kind of experiment: two-hybrid library CCNG1.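 Also: natural log of median RNA to DNA barcode read ratio; higher means stronger binding.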

The target in another test is T2, P7SHb.
T2 chain: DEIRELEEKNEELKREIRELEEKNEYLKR
As to the kind of experiment: two-hybrid library CCNG1.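 Also: natural log of median RNA to DNA barcode read ratio; higher means stronger binding.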

The next test deals with T3, P4SHb.
T3 chain: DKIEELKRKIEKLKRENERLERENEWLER
As to the kind of experiment: two-hybrid library CCNG1.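 Also: natural log of median RNA to DNA barcode read ratio; higher means stronger binding.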

In the next test the target is T4, P9SHb.
T4 chain: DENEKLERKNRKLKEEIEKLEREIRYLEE
Kind of test: two-hybrid library CCNG1.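 Also: natural log of median RNA to DNA barcode read ratio; higher means stronger binding.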

The next test has as its target T5, P5SHb.
T5 chain: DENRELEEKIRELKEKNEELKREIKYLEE
As to the kind of experiment: two-hybrid library CCNG1.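 Also: natural log of median RNA to DNA barcode read ratio; higher means stronger binding.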

The target in the next test is T6, P6SHb.
T6 chain: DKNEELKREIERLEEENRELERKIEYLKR
As to the kind of experiment: two-hybrid library CCNG1.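 Also: natural log of median RNA to DNA barcode read ratio; higher means stronger binding.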

The target of another test is T7, P3SHb.
T7 chain: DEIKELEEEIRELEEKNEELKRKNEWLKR
Kind of test: two-hybrid library CCNG1.

The target in another test is T8, 4H2621-AA.
T8 chain: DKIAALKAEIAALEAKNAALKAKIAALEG
As to the kind of experiment: two-hybrid library CCmax. As to conditions: mean of both orientations.

A further test addresses T9, 4H2774-AA.
T9 chain: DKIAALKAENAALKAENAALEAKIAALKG
Kind of test: two-hybrid library CCmax. As to conditions: mean of both orientations.

For another test, the target named is T10, 4H2760-AA.
T10 chain: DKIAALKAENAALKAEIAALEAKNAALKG
Kind of test: two-hybrid library CCmax. As to conditions: mean of both orientations.

Another test deals with T11, 4H3049-AA.
T11 chain: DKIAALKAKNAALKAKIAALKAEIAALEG
As to the kind of experiment: two-hybrid library CCmax. As to conditions: mean of both orientations.

The target in a further test is T12, 4H2580-AA.
T12 chain: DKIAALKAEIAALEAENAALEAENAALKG
As to the kind of experiment: two-hybrid library CCmax. As to conditions: mean of both orientations.

A further test concerns the target T13, 4H1593-AA.
T13 chain: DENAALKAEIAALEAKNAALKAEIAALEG
As to the kind of experiment: two-hybrid library CCmax. As to conditions: mean of both orientations.

The next test addresses T14, 4H3974-AA.
T14 chain: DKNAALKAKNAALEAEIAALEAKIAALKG
As to the kind of experiment: two-hybrid library CCmax. As to conditions: mean of both orientations.

The next test concerns the target T15, 4H432-AA.
T15 chain: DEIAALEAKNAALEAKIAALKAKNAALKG
As to the kind of experiment: two-hybrid library CCmax. As to conditions: mean of both orientations.

A further test deals with T16, 4H3619-AA.
T16 chain: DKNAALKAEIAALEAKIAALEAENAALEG
As to the kind of experiment: two-hybrid library CCmax. As to conditions: mean of both orientations.

For the next test, the target named is T17, 4H3094-AA.
T17 chain: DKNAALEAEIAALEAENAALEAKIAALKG
As to the kind of experiment: two-hybrid library CCmax. As to conditions: mean of both orientations.

Another test addresses T18, 4H249-AA.
T18 chain: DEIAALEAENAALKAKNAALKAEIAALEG
Kind of test: two-hybrid library CCmax. As to conditions: mean of both orientations.

For a further test, the target named is T19, 4H1449-AA.
T19 chain: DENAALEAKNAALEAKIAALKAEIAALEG
As to the kind of experiment: two-hybrid library CCmax.

Another test addresses T20, 4H341-AA.
T20 chain: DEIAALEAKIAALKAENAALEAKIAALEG
As to the kind of experiment: two-hybrid library CCmax.

The next test deals with T21, 4H3629-AA.
T21 chain: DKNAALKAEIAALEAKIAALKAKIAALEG
Kind of test: two-hybrid library CCmax. As to conditions: mean of both orientations.

For another test, the target named is T22, 4H2604-AA.
T22 chain: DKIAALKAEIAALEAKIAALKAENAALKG
Kind of test: two-hybrid library CCmax. As to conditions: mean of both orientations.

The target of a further test is T23, 4H324-AA.
T23 chain: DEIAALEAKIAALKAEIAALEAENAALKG
As to the kind of experiment: two-hybrid library CCmax. As to conditions: mean of both orientations.

In another test the target is T24, 4H2947-AA.
T24 chain: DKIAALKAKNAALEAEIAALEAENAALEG
As to the kind of experiment: two-hybrid library CCmax. As to conditions: mean of both orientations.

In another test the target is T25, 4H2961-AA.
T25 chain: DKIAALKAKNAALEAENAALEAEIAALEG
Kind of test: two-hybrid library CCmax. As to conditions: mean of both orientations.

For another test, the target named is T26, 4H3915-AA.
T26 chain: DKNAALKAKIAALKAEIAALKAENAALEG
Kind of test: two-hybrid library CCmax. As to conditions: mean of both orientations.

The next test deals with T27, 4H3449-AA.
T27 chain: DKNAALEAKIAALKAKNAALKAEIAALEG
As to the kind of experiment: two-hybrid library CCmax. As to conditions: mean of both orientations.

A further test concerns the target T28, 4H3777-AA.
T28 chain: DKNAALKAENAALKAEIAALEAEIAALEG
Kind of test: two-hybrid library CCmax. As to conditions: mean of both orientations.

The next test deals with T29, 4H380-AA.
T29 chain: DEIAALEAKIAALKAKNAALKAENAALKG
Kind of test: two-hybrid library CCmax. As to conditions: mean of both orientations.

The next test addresses T30, 4H63-AA.
T30 chain: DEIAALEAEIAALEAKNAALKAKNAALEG
Kind of test: two-hybrid library CCmax. As to conditions: mean of both orientations.

The target of the next test is T31, 4H1878-AA.
T31 chain: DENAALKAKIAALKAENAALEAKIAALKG
As to the kind of experiment: two-hybrid library CCmax. As to conditions: mean of both orientations.

For the next test, the target named is T32, 4H2903-AA.
T32 chain: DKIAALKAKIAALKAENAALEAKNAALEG
As to the kind of experiment: two-hybrid library CCmax. As to conditions: mean of both orientations.

The next test deals with T33, 4H235-AA.
T33 chain: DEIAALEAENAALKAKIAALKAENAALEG
As to the kind of experiment: two-hybrid library CCmax. As to conditions: mean of both orientations.

Another test addresses T34, 4H446-AA.
T34 chain: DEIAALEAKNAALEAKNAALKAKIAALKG
As to the kind of experiment: two-hybrid library CCmax. As to conditions: mean of both orientations.

In the next test the target is T35, O6-bS.
T35 chain: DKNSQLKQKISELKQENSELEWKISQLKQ
As to the kind of experiment: two-hybrid library CCNG1.

In a further test the target is T36, O3-bS.
T36 chain: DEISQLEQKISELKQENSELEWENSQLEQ
As to the kind of experiment: two-hybrid library CCNG1.

The target of the next test is T37, O9-bS.
T37 chain: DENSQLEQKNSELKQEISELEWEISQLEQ
As to the kind of experiment: two-hybrid library CCNG1.

For another test, the target named is T38, O13-bS.
T38 chain: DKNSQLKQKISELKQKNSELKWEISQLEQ
As to the kind of experiment: two-hybrid library CCNG1.

For a further test, the target named is T39, O4-bS.
T39 chain: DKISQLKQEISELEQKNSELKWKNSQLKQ
As to the kind of experiment: two-hybrid library CCNG1.

For the next test, the target named is T40, O7-bS.
T40 chain: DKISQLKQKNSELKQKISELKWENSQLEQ
As to the kind of experiment: two-hybrid library CCNG1.

Another test concerns the target T41, O2-bS.
T41 chain: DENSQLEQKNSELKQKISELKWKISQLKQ
As to the kind of experiment: two-hybrid library CCNG1.

The next test deals with T42, O5-bS.
T42 chain: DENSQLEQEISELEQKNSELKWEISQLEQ
As to the kind of experiment: two-hybrid library CCNG1.

Another test addresses T43, O8-bS.
T43 chain: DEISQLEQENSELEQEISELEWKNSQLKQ
Kind of test: two-hybrid library CCNG1.

In another test the target is T44, O16-bS.
T44 chain: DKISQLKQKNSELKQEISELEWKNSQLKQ
Kind of test: two-hybrid library CCNG1.

A further test addresses T45, O15-bS.
T45 chain: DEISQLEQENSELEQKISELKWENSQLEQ
As to the kind of experiment: two-hybrid library CCNG1.

Another test addresses T46, N6-AA.
T46 chain: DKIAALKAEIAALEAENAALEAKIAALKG
Kind of test: two-hybrid library CCmax.

Another test has as its target T47, 4H348-bN.
T47 chain: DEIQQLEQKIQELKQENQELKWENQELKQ
As to the kind of experiment: two-hybrid library CCNG1.

Another test concerns the target T48, 4H741-bN.
T48 chain: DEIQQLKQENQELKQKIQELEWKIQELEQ
Kind of test: two-hybrid library CCNG1.

The target in the next test is T49, 4H477-bN.
T49 chain: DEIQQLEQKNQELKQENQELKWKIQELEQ
As to the kind of experiment: two-hybrid library CCNG1.

In another test the target is T50, 4H319-bN.
T50 chain: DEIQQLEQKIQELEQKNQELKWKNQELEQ
As to the kind of experiment: two-hybrid library CCNG1.

Another test addresses T51, 4H492-bN.
T51 chain: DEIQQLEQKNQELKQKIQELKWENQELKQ
As to the kind of experiment: two-hybrid library CCNG1.

Another test concerns the target T52, 4H40-bN.
T52 chain: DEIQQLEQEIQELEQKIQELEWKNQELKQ
Kind of test: two-hybrid library CCNG1.

In the next test the target is T53, 4H3277-bN.
T53 chain: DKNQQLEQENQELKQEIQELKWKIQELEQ
Kind of test: two-hybrid library CCNG1.

On to DEIKELEEEIRELEEKNEELKRKNEWLKR [P3SHb], for which the interaction score in the test with P8SHb was -0.0984; with P7SHb it was 0.504; with P4SHb it was 1.16; with P9SHb, 0.0235; in the test with P5SHb it was 0.636; with P6SHb it was 0.81. This molecule displayed an interaction score with P3SHb of 0.389.

DENAALEAKNAALEAKIAALKAEIAALEG [4H1449-AA]: the interaction score with 4H2621-AA was -0.636; with 4H2774-AA, -1.47; in the test with 4H2760-AA it was -1.16; with 4H3049-AA, -0.585; with 4H2580-AA, -0.863; with 4H1593-AA it was -1.66. In addition, the interaction score in the test with 4H3974-AA is 2.16; with 4H432-AA, -1.57; with 4H3619-AA, -1.1; in the test with 4H3094-AA it was -1.53; with 4H249-AA it was -1.66; in the test with 4H1449-AA it was -0.875. Moreover, the interaction score in the test with 4H341-AA is -1.74; with 4H3629-AA it was -0.319; with 4H2604-AA, -0.197; in the test with 4H324-AA, -0.72; with 4H2947-AA it was -1.1; with 4H2961-AA it was -1.66. Also, the interaction score with 4H3915-AA was -1.06; with 4H3449-AA, -1.65; with 4H3777-AA it was -0.635; with 4H380-AA, -1.53; with 4H63-AA, -1.09; with 4H1878-AA, -1.34. The interaction score with 4H2903-AA was -1.54; with 4H235-AA, -1.93; in the test with 4H446-AA, -1.39.

For DKNSQLKQKISELKQKNSELKWEISQLEQ [O13-bS], the interaction score is -0.545 with O6-bS; -1.55 with O3-bS; -1.08 in the test with O9-bS; -1.65 with O13-bS; -2.17 with O4-bS; -1.16 with O7-bS. Also, the interaction score with O2-bS was -0.819; in the test with O5-bS, -2.23; with O8-bS it was -1.08; in the test with O16-bS, -1.78; in the test with O15-bS, -2.27.

In the case of DKIAALKAEIAALEAENAALEAKIAALKG [N6-AA], the interaction score with N6-AA turned out to be 1.66.

As for DEIQQLEQKIQELEQKNQELKWKNQELEQ [4H319-bN], the interaction score is -1.38 with 4H348-bN; -0.781 with 4H741-bN; 0.197 with 4H477-bN; -0.057 in the test with 4H319-bN; -2.53 with O13-bS; -0.916 in the test with 4H492-bN. For the same molecule, the interaction score with 4H40-bN is 0.382; in the test with 4H3277-bN, -0.892.
